Assays:
[1] = target: HLA-A*02 on cells (human); experiment: cell-based or functional assay
[2] = target: HLA-A*02 / HA-1(H) peptide … on T2 cells (human); experiment: cell-based or functional assay

EC50 right shift of the NY-ESO-1 TCR [1] [fold] | Emax shifted downward (KRAS TCR) [2] [fold] | Emax shifted downward (NY-ESO-1 TCR) [2] [fold] | additional right shift in activity of the NY-ESO-1 TCR [2] [fold] | block of KRAS TCR activity [2] [fold] | Binder
~30 |  |  |  |  | VLHDDLLEA [HA-1(H) peptide VLHDDLLEA]
 | 2.7 | 1.5 | ~10 | ~5 | HA-1 Ftcr blocker (TCR, V domains shown) V domain 1: KNEVEQSPQNLTAQEGEFITINCSYSVGISALHWLQQHPGGGIVSLFMLSSGKKKHGRLIATINIQEKHSSLHITASHPRDSAVYICAVRSVSGAGSYQLTFGKGTKLSVIP V domain 2: DTGVSQNPRHKITKRGQNVTFRCDPISEHNRLYWYRQTLGQGPEFLTYFQNEAQLEKSRLLSDRFSAERPKGSFSTLEIQRTEQGDSAMYLCASSIDSFNEQFFGPGTRLTVLE
